In publication PMC2115704:

Key:
Assay in all cases: SDS-PAGE in the absence of reductant
[1] = target: endogenous COS-1 cell TSP (African green monkey (endogenous in COS-1))
[2] = target: truncated TSP protein Pro449 (human)
[3] = target: truncated TSP protein Val333 (human)

Sequence of truncated TSP protein Pro449 (domain or fragment) (P07996 374-552): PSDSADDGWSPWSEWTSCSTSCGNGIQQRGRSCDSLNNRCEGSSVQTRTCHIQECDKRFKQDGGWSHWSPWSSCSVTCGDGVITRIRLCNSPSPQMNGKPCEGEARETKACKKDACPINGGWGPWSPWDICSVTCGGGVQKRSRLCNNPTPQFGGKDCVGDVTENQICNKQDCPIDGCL
Sequence of truncated TSP protein Val333 (domain or fragment) (P07996 374-552): as above

endogenous COS-1 cell TSP (natural protein)
stoichiometry N [1]: 3

truncated TSP protein Pro449 (domain or fragment)
stoichiometry N [2]: 3

truncated TSP protein Val333 (domain or fragment)
stoichiometry N [3]: 3
